# According to patent US20190083612A1 (RINAT NEUROSCIENCE, published 2019):
# Positions count from the first letter of the chain named.
# T1: rat PD-1 on primary rat T cells (rat, UniProt D3ZIN8 25-287)
# T1 sequence: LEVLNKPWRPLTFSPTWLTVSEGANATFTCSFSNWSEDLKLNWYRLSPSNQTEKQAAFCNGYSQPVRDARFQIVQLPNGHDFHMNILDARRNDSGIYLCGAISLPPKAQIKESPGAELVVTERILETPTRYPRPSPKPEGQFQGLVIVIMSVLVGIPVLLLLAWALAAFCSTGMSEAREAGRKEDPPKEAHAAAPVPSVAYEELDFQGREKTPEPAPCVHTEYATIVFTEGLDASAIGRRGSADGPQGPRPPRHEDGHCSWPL
# B1: mAb2 (antibody, V domains shown)
# VH: QVQLVQSGAEVKKPGASVKVSCKASGYTFTSYWINWVRQAPGQGLEWMGNIYPGSSLTNYNEKFKNRVTMTRDTSTSTVYMELSSLRSEDTAVYYCARLLTGTFAYWGQGTLVTVSS
# VL: DIVMTQSPDSLAVSLGERATINCKSSQSLWDSGNQKNFLTWYQQKPGQPPKLLIYWTSYRESGVPDRFSGSGSGTDFTLTISSLQAEDVAVYYCQNDYFYPLTFGGGTKVEIK
# notes: Variable regions only
# B2: mAb7 Fab (Fab, V domains shown)
# VH: B1 VH with L100S
# VL: B1 VL with L102H
# B3: mAb15 Fab (Fab, V domains shown)
# VH: B1 VH with Y52W
# VL: B1 VL with L102H
# B4: mAb14 (antibody, V domains shown)
# VH: B1 VH with Y52W
# VL: B1 VL
# notes: Variable regions only
# B5: mAb16 (antibody, V domains shown)
# VH: B1 VH with Y52W
# VL: B1 VL with G33T, Y59T
# notes: Variable regions only
# B6: mAb6 (antibody, V domains shown)
# VH: B1 VH with L100S
# VL: B1 VL
# notes: Variable regions only
# B7: mAb15 IgG1 AAA (antibody, V domains shown)
# VH: B1 VH with Y52W
# VL: B1 VL with L102H
# notes: also called mAb15-AAA
# B8: mAb9 (antibody, V domains shown)
# VH: B1 VH with L57I, L100T
# VL: B1 VL with Y59T
# notes: Variable regions only
# B9: mAb8 (antibody, V domains shown)
# VH: B1 VH with L100S
# VL: B1 VL with G33T, Y59T
# notes: Variable regions only
# B10: mAb11 (antibody, V domains shown)
# VH: B1 VH with L57I, L100T
# VL: B1 VL with L102H
# notes: Variable regions only
# B11: mAb5 (antibody, V domains shown)
# VH: B1 VH with L100S
# VL: B1 VL with Y59T
# notes: Variable regions only
# B12: mAb15 (human IgG4 kappa, hinge stabilized) (antibody, V domains shown)
# VH: B1 VH with Y52W
# VL: B1 VL with L102H
# notes: also called mAb15-G4; mAb15 (G4)
# B13: mAb10 (antibody, V domains shown)
# VH: B1 VH with L57I, L100T
# VL: B1 VL
# notes: Variable regions only
# B14: mAb1 (antibody, V domains shown)
# VH: B1 VH
# VL: B1 VL with Y59T
# notes: Variable regions only
# B15: mAb12 (antibody, V domains shown)
# VH: B1 VH with L57I, L100T
# VL: B1 VL with G33T, Y59T
# notes: Variable regions only
# B16: mAb3 (antibody, V domains shown)
# VH: B1 VH
# VL: B1 VL with L102H
# notes: Variable regions only
# B17: mAb7 IgG1 AAA (antibody, V domains shown)
# VH: B1 VH with L100S
# VL: B1 VL with L102H
# notes: also called mAb7-AAA
# B18: mAb13 (antibody, V domains shown)
# VH: B1 VH with Y52W
# VL: B1 VL with Y59T
# notes: Variable regions only
# Legend:
# [1] = target: T1, rat PD-1 on primary rat T cells; assay: FACS, naive primary rat T cells
# [2] = target: cynomolgus monkey PD-1 on primary cynomolgus monkey T cells (cynomolgus monkey) (UniProt B0LAJ3); assay: FACS, naive primary cynomolgus monkey T cells
# cynomolgus monkey PD-1 on primary cynomolgus monkey T cells (cynomolgus monkey), sequence (B0LAJ3 entry or part of it limits assumed): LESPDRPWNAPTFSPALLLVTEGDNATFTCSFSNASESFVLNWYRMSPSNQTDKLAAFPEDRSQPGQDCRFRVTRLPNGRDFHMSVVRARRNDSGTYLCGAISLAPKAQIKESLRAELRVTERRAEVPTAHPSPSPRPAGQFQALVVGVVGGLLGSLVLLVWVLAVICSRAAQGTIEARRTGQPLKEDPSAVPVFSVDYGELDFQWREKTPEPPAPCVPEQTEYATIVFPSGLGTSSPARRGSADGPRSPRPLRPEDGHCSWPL
# [3] = target: cynomolgus monkey PD-1 on primary cynomolgus monkey T cells (cynomolgus monkey) (UniProt B0LAJ3); assay: FACS, activated primary cynomolgus monkey T cells
# [4] = target: human PD-1 on primary human T cells (human) (UniProt Q15116); assay: FACS, activated primary human T cells
# human PD-1 on primary human T cells (human), sequence (Q15116 25-288 limits assumed): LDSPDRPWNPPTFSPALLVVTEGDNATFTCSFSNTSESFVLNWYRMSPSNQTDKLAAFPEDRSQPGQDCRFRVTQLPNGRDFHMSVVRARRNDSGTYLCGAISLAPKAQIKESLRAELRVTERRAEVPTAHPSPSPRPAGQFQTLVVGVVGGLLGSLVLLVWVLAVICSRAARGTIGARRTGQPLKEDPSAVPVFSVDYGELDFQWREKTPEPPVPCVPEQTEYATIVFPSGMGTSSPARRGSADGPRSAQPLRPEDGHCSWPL
# [5] = target: T1, rat PD-1 on primary rat T cells; assay: FACS, activated primary rat T cells
# [6] = target: human PD-1 on primary human T cells (human) (UniProt Q15116); assay: FACS, naive primary human T cells
# [7] = target: human PD-1 on primary human T cells (human) (UniProt Q15116); assay: cell-based or functional assay
# [8] = target: T2, human PD-1 (hPD-1) monomer (human, UniProt Q15116 25-167); assay: SPR, human PD-1, 25 C
# T2 construct: also called hu-PD-1; not shown: His tag (His-tagged monomer)
# T2 sequence (Q15116 25-167 limits assumed): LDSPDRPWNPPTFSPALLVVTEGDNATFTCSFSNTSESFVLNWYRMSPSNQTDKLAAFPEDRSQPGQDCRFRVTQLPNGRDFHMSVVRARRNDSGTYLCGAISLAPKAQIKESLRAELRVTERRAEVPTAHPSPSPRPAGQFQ
# [9] = target: T3, hPD-1-hFc1 (R&D systems cat. no. 1086PD) (human, UniProt Q15116 25-167); assay: SPR (Biacore 2000), Fab over anti-hFc-captured PD-1-hFc1, 25 C; 5% rule
# T3 construct: Bought; not shown: human IgG1 Fc (hFc1)
# T3 sequence (Q15116 25-167 limits assumed): as above
# Description: (§1) An anti-hFc polyclonal antibody was amine-coupled to the chip and used to capture approximately 90 RU hPD-1-hFc1 and 125 RU cynoPD-1-hFc1 on flow cells 2 and 3, leaving flow cell 1 blank (naked anti-hFc capture surface) to provide a reference channel. Recombinant purified Fabs were injected for two min as analyte at 0, 10, and 100 nM over freshly captured PD-1-hFc1 fusion proteins, allowing a 15-min dissociation time.
# [10] = target: T4, cynoPD-1-hFc1 (prepared in-house) (cynomolgus monkey; human, UniProt B0LAJ3 25-170); assay: as above
# T4 sequence (B0LAJ3 entry or part of it limits assumed): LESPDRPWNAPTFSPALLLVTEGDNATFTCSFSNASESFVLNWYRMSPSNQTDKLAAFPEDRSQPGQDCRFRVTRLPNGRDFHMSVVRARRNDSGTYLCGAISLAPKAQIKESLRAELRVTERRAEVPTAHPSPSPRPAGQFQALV
# Description: as §1
# [11] = target: T3, hPD-1-hFc1 (R&D systems cat. no. 1086PD); assay: SPR (Biacore 2000), Fab over anti-hFc-captured PD-1-hFc1, 25 C
# Description: (§2) All interaction analysis was performed on label-free biosensors at 25° C. unless stated otherwise. Surface plasmon resonance biosensors (ProteOn-XPR™ from BioRad™, and Biacore 2000™ and Biacore T200™ from GE Life Sciences) were used to study human and cynomolgus monkey PD-1 and a biolayer interferometry biosensor (Octet-Red384, Fortebio/Pall Life Sciences) was used to study mouse PD-1. ProteOn experiments were performed in PBS pH 7.4+0.01% Tween-20 (PBST) running buffer. Biacore experiments were performed in 10 mM Hepes pH 7.4, 150 mM NaCl, 0.05% Tween-20 (HBST+) and Octet experiments were performed in HBST+ with 1 g/l BSA. The ProteOn data were processed in the ProteOn Manager software, the Biacore data were processed in Biaevaluation, and the Octet data were simply aligned to zero in the control software.
# as §1
# [12] = target: T4, cynoPD-1-hFc1 (prepared in-house); assay: as above
# Description: as §2, §1
# [13] = target: T2, human PD-1 (hPD-1) monomer; assay: SPR (ProteOn), hPD-1 monomer over amine-coupled IgG, 25 C
# Description: as §2
# (§3) The surfaces for these experiments were prepared in three steps; (1) the ligand channels were minimally activated for two min using a freshly prepared mixture of the activation reagents at final 0.8 mM EDC and 0.2 mM sulfo-NHS in water, (2) the IgGs were coupled for three min at 15 μg/ml in 10 mM sodium acetate pH 4.5, and (3) excess reactive esters were blocked for three min with 1 M ethanolamine HCl pH 8.5. […] Association and dissociation times were 3 min and 20 min, respectively and all analytes were injected in duplicate binding cycles. Surfaces were regenerated with a cocktail of 2:1 v/v Pierce IgG elution buffer (pH 2.8):4 M NaCl.
# [14] = target: T2, human PD-1 (hPD-1) monomer; assay: SPR (ProteOn), hPD-1 monomer over amine-coupled IgG, 25 C; 5% rule
# Description: as §3
# N=2 refers to two independent experiments on different chips.
# [15] = target: T2, human PD-1 (hPD-1) monomer; assay: SPR (Biacore T200), hPD-1 monomer over anti-hFc-captured hIgG4, 37 C
# Description: (§4) The hPD-1 was injected at active concentrations of 0, 10, and 100 nM for three minutes allowing an 18-min dissociation phase. The capture surfaces were regenerated with 75 mM phosphoric acid after each binding cycle.
# [16] = target: T2, human PD-1 (hPD-1) monomer; assay: SPR (Biacore T200), hPD-1 monomer over anti-hFc-captured hIgG4, 25 C
# Description: as §2, §4
molecule,measurement,setting,value
"Negative control antibody (anti-bovine herpes virus, IgG4-HG framework)",% Binding,[1],0.82%
same,% Binding,[2],5.38%
same,% Binding,[3],4.67%
same,% Binding,[4],4.75%
same,% Binding,[5],4.36%
same,% Binding,[6],3.49%
"EH12.1 (BD Biosciences mouse anti human anti-PD-1 antibody, mouse isotype IgG1 Kappa)","IFNγ (pg/ml), MLR day 5, antibody 0.0001 µg/ml",[7],1700 pg/mL
same,"IFNγ (pg/ml), MLR day 5, antibody 0.001 µg/ml",[7],2280 pg/mL
same,"IFNγ (pg/ml), MLR day 5, antibody 0.01 µg/ml",[7],4380 pg/mL
same,"IFNγ (pg/ml), MLR day 5, antibody 0.1 µg/ml",[7],4730 pg/mL
same,"IFNγ (pg/ml), MLR day 5, antibody 1 µg/ml",[7],9910 pg/mL
same,"IFNγ (pg/ml), MLR day 5, antibody 10 µg/ml",[7],15100 pg/mL
same,"TNF (pg/ml), MLR day 5, antibody 0.0001 µg/ml",[7],753 pg/mL
same,"TNF (pg/ml), MLR day 5, antibody 0.001 µg/ml",[7],687 pg/mL
same,"TNF (pg/ml), MLR day 5, antibody 0.01 µg/ml",[7],859 pg/mL
same,"TNF (pg/ml), MLR day 5, antibody 0.1 µg/ml",[7],745 pg/mL
same,"TNF (pg/ml), MLR day 5, antibody 1 µg/ml",[7],979 pg/mL
same,"TNF (pg/ml), MLR day 5, antibody 10 µg/ml",[7],1950 pg/mL
B1,Kd,[8],2.22 nM
B2,koff,[9],< 5.7e-05 s⁻¹
same,koff,[10],< 5.7e-05 s⁻¹
same,Kd,[11],< 0.101 nM
same,kon,[11],567000 M⁻¹ s⁻¹
same,Kd,[12],< 0.108 nM
same,kon,[12],526000 M⁻¹ s⁻¹
B3,koff,[9],< 5.7e-05 s⁻¹
same,koff,[10],< 5.7e-05 s⁻¹
same,Kd,[11],< 0.062 nM
same,kon,[11],916000 M⁻¹ s⁻¹
same,Kd,[12],< 0.069 nM
same,kon,[12],824000 M⁻¹ s⁻¹
B4,Kd,[8],0.6 nM
B5,Kd,[8],7.51 nM
B6,Kd,[8],1.16 nM
B7,Kd,[13],< 0.053 nM
same,kon,[13],813000 M⁻¹ s⁻¹
same,koff,[14],< 4.3e-05 s⁻¹
B8,Kd,[8],13.5 nM
B9,Kd,[8],17.4 nM
B10,Kd,[8],0.93 nM
B11,Kd,[8],12.8 nM
B12,Kd,[13],< 0.058 nM
same,kon,[13],732000 M⁻¹ s⁻¹
same,Kd,[15],0.54 nM
same,koff,[15],0.000373 s⁻¹
same,kon,[15],694000 M⁻¹ s⁻¹
same,Kd,[16],0.49 nM
same,koff,[16],0.000171 s⁻¹
same,kon,[16],349000 M⁻¹ s⁻¹
same,Kd,[8],0.49 nM
same,koff,[14],< 4.3e-05 s⁻¹
B13,Kd,[8],0.98 nM
B14,Kd,[8],64.2 nM
B15,Kd,[8],17.3 nM
B16,Kd,[8],1.43 nM
B17,Kd,[13],< 0.086 nM
same,kon,[13],497000 M⁻¹ s⁻¹
same,koff,[14],< 4.3e-05 s⁻¹
B18,Kd,[8],5.87 nM
